B1: Focal adhesion kinase 1 (Rattus norvegicus (Rat)), O35346 (parent)
chain: MAAAYLDPNLNHTPSSSTKTHLGTGTERSPGAMERVLKVFHYFESSNEPTTWASIIRHGDATDVRGIIQKIVDSHKVKHVACYGFRLSHLRSEEVHWLHVDMGVSSVREKYELAHPPEEWKYELRIRYLPKGFLNQFTEDKPTLNFFYQQVKSDYMLEIADQVDQDIALKLGCLEIRRSYWEMRGNALEKKSNYEVLEKDVGLKRFFPKSLLDSVKAKTLRKLIQQTFRQFANLNREESILKFFEILSPVYRFDKECFKCALGSSWIISVELAIGPEEGISYLTDKGCNPTHLADFNQVQTIQYSNSEDKDRKGMLQLKIAGAPEPLTVTAPSLTIAENMADLIDGYCRLVNGATQSFIIRPQKEGERALPSIPKLANNEKQGMRTHAVSVSETDDYAEIIDEEDTYTMPSTRDYEIQRERIELGRCIGEGQFGDVHQGVYLSPENPALAVAIKTCKNCTSDSVREKFLQEALTMRQFDHPHIVKLIGVITENPVWIIMELCTLGELRSFLQVRKYSLDLASLILYAYQLSTALAYLESKRFVHRDIAARNVLVSSNDCVKLGDFGLSRYMEDSTYYKASKGKLPIKWMAPESINFRRFTSASDVWMFGVCMWEILMHGVKPFQGVKNNDVIGRIENGERLPMPPNCPPTLYSLMTKCWAYDPSRRPRFTELKAQLSTILEEEKVQQEERMRMESRRQATVSWDSGGSDEAPPKPSRPGYPSPRSSEGFYPSPQHMVQTNHYQISGYPGSHGIPAMAGSIYPGQASLLDQTELWNHRPQEMSMWQPSVEDSAALDLRGMGQVLPPHLMEERLIRQQQEMEEDQRWLEKEERFLKPDVRLSRGSIDREDGSFQGPTGNQHIYQPVGKPDPAAPPKKPPRPGAPGHLSNLSSISSPAESYNEGVKPWRLQPQEISPPPTANLDRSNDKVYENVTGLVKAVIEMSSKIQPAPPEEYVPMVKEVGLALRTLLATVDETIPILPASTHREIEMAQKLLNSDLGELISKMKLAQQYVMTSLQQEYKKQMLTAAHALAVDAKNLLDVIDQARLKMLGQTRPH

Variants of B1 are the subject of this test. The note with it: with paxi_mouse Pxn.
In the case of W266A, the “effect of a mutation on the interaction” value is “disrupting interaction”.

The record behind these values is IntAct's records for PubMed 24480479.
